± gives the uncertainty stated by the source.
B1: Endonuclease CUE2, residues 9 to 47; numbered along this chain, P36075 (parent)
chain: HESKLSILMDMFPAISKSKLQVHLLENNNDLDLTIGLLL

Variants of: B1
Assay: abundance fitness (aPCA) (normalised: wild type 0, dead -1); higher = more abundant; growth selection in yeast, the domain comes from the species named
Conditions: Saccharomyces cerevisiae (strain ATCC 204508 / S288c)

Row | Variant | abundance fitness
1 | HESKLSILMHMFPAISKSKLQVHLLENNNDLDLTIGLLL [D10H] | -0.145 ± 0.11
2 | HESKLSILMIMFPAISKSKLQVHLLENNNDLDLTIGLLL [D10I] | -0.12 ± 0.067
3 | HESKLSILMKMFPAISKSKLQVHLLENNNDLDLTIGLLL [D10K] | -0.191 ± 0.048
4 | HESKLSILMLMFPAISKSKLQVHLLENNNDLDLTIGLLL [D10L] | -0.441 ± 0.051
5 | HESKLSILMNMFPAISKSKLQVHLLENNNDLDLTIGLLL [D10N] | -0.086 ± 0.055
6 | HESKLSILMPMFPAISKSKLQVHLLENNNDLDLTIGLLL [D10P] | -0.587 ± 0.12
7 | HESKLSILMQMFPAISKSKLQVHLLENNNDLDLTIGLLL [D10Q] | -0.183 ± 0.064
8 | HESKLSILMSMFPAISKSKLQVHLLENNNDLDLTIGLLL [D10S] | -0.299 ± 0.056
9 | HESKLSILMVMFPAISKSKLQVHLLENNNDLDLTIGLLL [D10V] | -0.336 ± 0.044
10 | HESKLSILMWMFPAISKSKLQVHLLENNNDLDLTIGLLL [D10W] | -0.691 ± 0.092
11 | HESKLSILMDAFPAISKSKLQVHLLENNNDLDLTIGLLL [M11A] | -0.16 ± 0.049
12 | HESKLSILMDDFPAISKSKLQVHLLENNNDLDLTIGLLL [M11D] | -0.758 ± 0.12
13 | HESKLSILMDEFPAISKSKLQVHLLENNNDLDLTIGLLL [M11E] | -0.274 ± 0.051
14 | HESKLSILMDGFPAISKSKLQVHLLENNNDLDLTIGLLL [M11G] | -0.746 ± 0.074
15 | HESKLSILMDHFPAISKSKLQVHLLENNNDLDLTIGLLL [M11H] | -0.297 ± 0.14
16 | HESKLSILMDLFPAISKSKLQVHLLENNNDLDLTIGLLL [M11L] | -0.184 ± 0.083
17 | HESKLSILMDNFPAISKSKLQVHLLENNNDLDLTIGLLL [M11N] | -0.209 ± 0.26
18 | HESKLSILMDPFPAISKSKLQVHLLENNNDLDLTIGLLL [M11P] | -0.748 ± 0.28
19 | HESKLSILMDQFPAISKSKLQVHLLENNNDLDLTIGLLL [M11Q] | -0.077 ± 0.037
20 | HESKLSILMDSFPAISKSKLQVHLLENNNDLDLTIGLLL [M11S] | -0.421 ± 0.15
21 | HESKLSILMDVFPAISKSKLQVHLLENNNDLDLTIGLLL [M11V] | -0.447 ± 0.058
22 | HESKLSILMDWFPAISKSKLQVHLLENNNDLDLTIGLLL [M11W] | -0.413 ± 0.048

Row | Variant | abundance fitness
23 | HESKLSILMDMDPAISKSKLQVHLLENNNDLDLTIGLLL [F12D] | -1.07 ± 0.28
24 | HESKLSILMDMEPAISKSKLQVHLLENNNDLDLTIGLLL [F12E] | -0.884 ± 0.12
25 | HESKLSILMDMGPAISKSKLQVHLLENNNDLDLTIGLLL [F12G] | -0.905 ± 0.15
26 | HESKLSILMDMKPAISKSKLQVHLLENNNDLDLTIGLLL [F12K] | -0.966 ± 0.2
27 | HESKLSILMDMLPAISKSKLQVHLLENNNDLDLTIGLLL [F12L] | -0.644 ± 0.075
28 | HESKLSILMDMMPAISKSKLQVHLLENNNDLDLTIGLLL [F12M] | -0.548 ± 0.19
29 | HESKLSILMDMPPAISKSKLQVHLLENNNDLDLTIGLLL [F12P] | -0.611 ± 0.39
30 | HESKLSILMDMRPAISKSKLQVHLLENNNDLDLTIGLLL [F12R] | -0.865 ± 0.11
31 | HESKLSILMDMSPAISKSKLQVHLLENNNDLDLTIGLLL [F12S] | -0.808 ± 0.12
32 | HESKLSILMDMTPAISKSKLQVHLLENNNDLDLTIGLLL [F12T] | -0.446 ± 0.12
33 | HESKLSILMDMVPAISKSKLQVHLLENNNDLDLTIGLLL [F12V] | -0.9 ± 0.1
34 | HESKLSILMDMWPAISKSKLQVHLLENNNDLDLTIGLLL [F12W] | -0.596 ± 0.097
35 | HESKLSILMDMFAAISKSKLQVHLLENNNDLDLTIGLLL [P13A] | -0.602 ± 0.11
36 | HESKLSILMDMFCAISKSKLQVHLLENNNDLDLTIGLLL [P13C] | -0.67 ± 0.18
37 | HESKLSILMDMFDAISKSKLQVHLLENNNDLDLTIGLLL [P13D] | -0.898 ± 0.18
38 | HESKLSILMDMFEAISKSKLQVHLLENNNDLDLTIGLLL [P13E] | -0.349 ± 0.083
39 | HESKLSILMDMFFAISKSKLQVHLLENNNDLDLTIGLLL [P13F] | -0.868 ± 0.37
40 | HESKLSILMDMFGAISKSKLQVHLLENNNDLDLTIGLLL [P13G] | -0.834 ± 0.07
41 | HESKLSILMDMFHAISKSKLQVHLLENNNDLDLTIGLLL [P13H] | -1.06 ± 0.3
42 | HESKLSILMDMFIAISKSKLQVHLLENNNDLDLTIGLLL [P13I] | -0.804 ± 0.17
43 | HESKLSILMDMFKAISKSKLQVHLLENNNDLDLTIGLLL [P13K] | -0.781 ± 0.16
44 | HESKLSILMDMFLAISKSKLQVHLLENNNDLDLTIGLLL [P13L] | -0.795 ± 0.1

Row | Variant | abundance fitness
45 | HESKLSILMDMFMAISKSKLQVHLLENNNDLDLTIGLLL [P13M] | -0.72 ± 0.16
46 | HESKLSILMDMFQAISKSKLQVHLLENNNDLDLTIGLLL [P13Q] | -0.752 ± 0.13
47 | HESKLSILMDMFRAISKSKLQVHLLENNNDLDLTIGLLL [P13R] | -0.951 ± 0.11
48 | HESKLSILMDMFSAISKSKLQVHLLENNNDLDLTIGLLL [P13S] | -0.806 ± 0.12
49 | HESKLSILMDMFTAISKSKLQVHLLENNNDLDLTIGLLL [P13T] | -0.861 ± 0.18
50 | HESKLSILMDMFWAISKSKLQVHLLENNNDLDLTIGLLL [P13W] | -1.04 ± 0.14
51 | HESKLSILMDMFPCISKSKLQVHLLENNNDLDLTIGLLL [A14C] | -0.093 ± 0.068
52 | HESKLSILMDMFPDISKSKLQVHLLENNNDLDLTIGLLL [A14D] | -0.118 ± 0.13
53 | HESKLSILMDMFPEISKSKLQVHLLENNNDLDLTIGLLL [A14E] | 0.068 ± 0.039
54 | HESKLSILMDMFPFISKSKLQVHLLENNNDLDLTIGLLL [A14F] | -0.033 ± 0.089
55 | HESKLSILMDMFPGISKSKLQVHLLENNNDLDLTIGLLL [A14G] | 0.012 ± 0.031
56 | HESKLSILMDMFPLISKSKLQVHLLENNNDLDLTIGLLL [A14L] | -0.053 ± 0.036
57 | HESKLSILMDMFPMISKSKLQVHLLENNNDLDLTIGLLL [A14M] | -0.133 ± 0.061
58 | HESKLSILMDMFPPISKSKLQVHLLENNNDLDLTIGLLL [A14P] | -0.383 ± 0.076
59 | HESKLSILMDMFPQISKSKLQVHLLENNNDLDLTIGLLL [A14Q] | 0.012 ± 0.045
60 | HESKLSILMDMFPRISKSKLQVHLLENNNDLDLTIGLLL [A14R] | -0.018 ± 0.036
61 | HESKLSILMDMFPSISKSKLQVHLLENNNDLDLTIGLLL [A14S] | 0.068 ± 0.046
62 | HESKLSILMDMFPTISKSKLQVHLLENNNDLDLTIGLLL [A14T] | -0.163 ± 0.22
63 | HESKLSILMDMFPVISKSKLQVHLLENNNDLDLTIGLLL [A14V] | -0.079 ± 0.047
64 | HESKLSILMDMFPWISKSKLQVHLLENNNDLDLTIGLLL [A14W] | -0.047 ± 0.034

— the Human Domainome abundance scans (Beltran et al. 2025)
